Substitutions are numbered along the chain they refer to. Names and notes keep the numbering of the source.

For test [1], the target named is T1, human complement factor C1q (human, UniProt P02745 23-245; P02746 28-253; P02747 29-245).
T1 construct: Bought
The experiment in a line: repeat ELISA: IgG coated at 20000-156.25 ng/ml, human C1q 360 ng/ml, detected with rabbit anti-human C1q and HRP anti-rabbit IgG (y axis printed as Absorbance 405 nm). The protocol: (§1) Remaining surface area were blocked with PBS containing 0.05% T and 4% S for 1 h at RT. The plates were then washed four times with PBS/T using a Hydrospeed™ plate washer (Tecan). Human C1q (Complement Technologies) diluted to 360 ng/ml in veronal buffer (Complement Technologies) were added and incubated for 30 min at 37° C. Detection of bound C1q was performed using a primary anti-human C1q antibody from rabbit (DAKO) diluted 1:10.000 in PBS/T/S and a secondary horseradish peroxidase (HRP) conjugated anti-rabbit IgG antibody diluted 1:5000 in PBS/T/S (GE Healthcare). Binding was visualized by addition of 100 μl TMB substrate (Calbiochem) for 15-20 min before the enzymatic reaction was stopped by addition of 50 μl 1 M HC1. The 450 nm absorption values were recorded using a Sunrise TECAN spectrophotometer (Tecan).
(In general: An ELISA detects its analyte on a solid surface through an enzyme-linked reagent.)

The target in test [2] is T2, biotinylated truncated soluble human FcγRIIa-R131 (human, UniProt P12318 34-217, biotinylated).
T2 construct: extracellular domain; Bought
T2 sequence (looked up): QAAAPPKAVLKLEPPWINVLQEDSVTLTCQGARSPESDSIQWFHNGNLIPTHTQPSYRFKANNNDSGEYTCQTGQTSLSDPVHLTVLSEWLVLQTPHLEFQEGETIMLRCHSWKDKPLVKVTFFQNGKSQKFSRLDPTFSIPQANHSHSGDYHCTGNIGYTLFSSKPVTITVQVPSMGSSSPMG
The experiment in a line: ELISA: IgG coated at 10000-4.5 ng/ml, biotinylated truncated soluble human FcγRIIa-R131 250 ng/ml pre-complexed with AP-streptavidin, absorbance 405 nm. How it is done:
(§2) 96 well EIA/RIA plates (CorningCostar) were coated with 100 μl titrated amounts of IgG variants (10.000-4.5 ng/ml) diluted in PBS and incubated O/N at 4° C. Remaining surface area were blocked with PBS containing 0.05% T and 4% S for 1 h at RT. The plates were washed four times with PBS/T using a Hydrospeed™ plate washer (Tecan). […] Following washing as above, bound receptor was visualized by addition of phosphatase substrate (1 mg/ml in diethanolamine buffer) (Sigma Aldrich). The plates were developed for 15-20 min before the 405 nm absorption values were recorded using a TECAN Sunrise spectrophotometer (Tecan).

Test [3] has as its target T3, biotinylated truncated soluble human FcγRIIb (human, UniProt P31994 43-217, biotinylated).
T3 construct: extracellular domain; Bought
T3 sequence (looked up): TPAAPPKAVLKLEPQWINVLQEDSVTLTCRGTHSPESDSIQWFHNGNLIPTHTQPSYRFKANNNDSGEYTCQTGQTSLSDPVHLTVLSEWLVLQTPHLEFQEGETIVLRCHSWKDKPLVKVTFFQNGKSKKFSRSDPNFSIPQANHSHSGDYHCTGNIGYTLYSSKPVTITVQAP
Briefly: ELISA: IgG coated at 10000-4.5 ng/ml, biotinylated truncated soluble human FcγRIIb 250 ng/ml pre-complexed with AP-streptavidin, absorbance 405 nm. How it is done:
as §2

In test [4] the target is T1, human complement factor C1q. Briefly: ELISA: IgG coated at 20000-156.25 ng/ml, human C1q 360 ng/ml, detected with rabbit anti-human C1q and HRP anti-rabbit IgG (y axis printed as Absorbance 405 nm). How it is done: as §1
Test [5] has as its target T4, biotinylated truncated soluble human FcγRI (human, UniProt P12314 16-292, biotinylated).
T4 construct: extracellular domain; Bought; preformed complex with AP-streptavidin
The experiment in a line: ELISA: IgG coated at 10000-4.5 ng/ml, biotinylated truncated soluble human FcγRI 250 ng/ml pre-complexed with AP-streptavidin, absorbance 405 nm. How it is done: as §2

The target in test [6] is T5, biotinylated soluble human FcRn (human, UniProt P55899 24-297; P61769 21-119, biotinylated).
T5 construct: extracellular domain; Bought; Beta-2-microglobulin is not mentioned; Used as preformed complex with AP-streptavidin
The experiment in a line: ELISA: IgG coated at 1000-0.45 ng/ml, biotinylated soluble human FcRn 250 ng/ml pre-complexed with AP-streptavidin, pH 6.0, absorbance 405 nm. How it is done: Remaining surface area were blocked with PBS containing 0.05% T and 4% S for 1 h at RT. The plates were washed four times with PBS/T using a Hydrospeed™ plate washer (Tecan). […] Following washing as above with PBS/T or FcRn binding buffer ([…], 0.1 M NaCl, 0.05% T, pH 6.0), bound receptor was visualized by addition of phosphatase substrate (1 mg/ml in diethanolamine buffer) (Sigma Aldrich). The plates were developed for 20-30 min before the 405 nm absorption values were recorded using a TECAN Sunrise spectrophotometer (Tecan).

Test [7] addresses T6, biotinylated truncated soluble human FcγRIIIa-F158 (human, UniProt P08637 17-208, biotinylated).
T6 construct: extracellular domain; Bought
The experiment in a line: ELISA: IgG coated at 10000-4.5 ng/ml, biotinylated truncated soluble human FcγRIIIa-F158 250 ng/ml pre-complexed with AP-streptavidin, absorbance 405 nm. The protocol: as §2

Test [8] has as its target T7, biotinylated truncated soluble human FcγRIIa-H131 (human, UniProt P12318 34-217, biotinylated).
T7 construct: extracellular domain; Bought
T7 sequence (looked up): T2 sequence (looked up) with R134H
The experiment in a line: ELISA: IgG coated at 10000-4.5 ng/ml, biotinylated truncated soluble human FcγRIIa-H131 250 ng/ml pre-complexed with AP-streptavidin, absorbance 405 nm. How it is done:
as §2

In test [9] the target is T8, human CD37 (human, UniProt P11049 1-281).
T8 construct: whole, on cells; also called CD37 antigen
T8 sequence (looked up): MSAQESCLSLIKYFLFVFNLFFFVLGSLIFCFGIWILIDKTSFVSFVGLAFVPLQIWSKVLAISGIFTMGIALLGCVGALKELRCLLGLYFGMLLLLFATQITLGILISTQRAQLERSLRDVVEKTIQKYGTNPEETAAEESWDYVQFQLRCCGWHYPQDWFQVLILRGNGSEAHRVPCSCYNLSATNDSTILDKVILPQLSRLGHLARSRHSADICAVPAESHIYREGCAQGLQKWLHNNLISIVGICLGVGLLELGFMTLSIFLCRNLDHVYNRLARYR
Briefly: competitive radioligand binding on Ramos cells against 177Lu-NNV009 (2.7 nM), gamma counting. How it is done: (§3) The Eppendorf LoBind tubes 1.5 mL were used to prepare dilutions (working concentrations) of Abs. As much as 0.2 mL of the cell suspension (800 000 cells/tube), after it has been cooled down for 30 min on ice, was aliquoted to glass 12×75 mm counting tubes. Each tube was pre-labeled with a code specifically determining each sample. The tubes with cells were maintained on ice for whole time course of the experiment except for the time when counted on the gamma counter. The tubes were agitated on a planetary shaker at 350 RPM, 4° C. (on ice) for 15 min. […] The tubes were placed on the planetary shaker (GL 064), on ice, and shaken for 4 hours at 350 RPM. After 3.5 hours past from the beginning of incubation, the samples were assayed on Wizard2 gamma counter using protocol “Lu-177 General” (all detectors except for the detector #3 were used). Upon completion the counting, the cells were washed with ice-cold 0.5 mL 0.5% BSAPBS three times. All the tubes were assayed on the Wizard2 gamma counter again using the same sequence and parameters as before the washing.

Test [10] concerns the target T8, human CD37. The experiment in a line: competitive radioligand binding on Ramos cells; upper end tied by Table 18 to AH02895.
Test [11] deals with T8, human CD37. The experiment in a line: competitive radioligand binding on Ramos cells; ratio to Ki of NNV009 (assumed 2.3). How it is done:
as §3

Test [12] concerns the target FcγRIIIa-V158 on Promega Jurkat effector cells (UniProt P08637 17-254, limits assumed). The experiment in a line: cell-based or functional assay.
Test [13] deals with T8, human CD37. Briefly: reference to the competitive binding of Example 6.
The target in test [14] is T9, biotinylated truncated soluble human FcγRIIIb (human, UniProt O75015 17-200, limits assumed, biotinylated).
T9 construct: extracellular domain; Bought
Briefly: ELISA: IgG coated at 10000-4.5 ng/ml, biotinylated truncated soluble human FcγRIIIb 250 ng/ml pre-complexed with AP-streptavidin, absorbance 405 nm. How it is done: as §2

In test [15] the target is T10, biotinylated truncated soluble human FcγRIIIa-V158 (human, UniProt P08637 17-208, biotinylated).
T10 construct: extracellular domain; Bought
Briefly: ELISA: IgG coated at 10000-4.5 ng/ml, biotinylated truncated soluble human FcγRIIIa-V158 250 ng/ml pre-complexed with AP-streptavidin, absorbance 405 nm. How it is done:
as §2

The target in test [16] is T8, human CD37. Briefly: competitive radioligand binding on Ramos cells; lower end tied by Table 18 to AH02871HC + AH02877LC + V110D.

T1 sequence (P02745 23-245 limits assumed, chain 1 of 3): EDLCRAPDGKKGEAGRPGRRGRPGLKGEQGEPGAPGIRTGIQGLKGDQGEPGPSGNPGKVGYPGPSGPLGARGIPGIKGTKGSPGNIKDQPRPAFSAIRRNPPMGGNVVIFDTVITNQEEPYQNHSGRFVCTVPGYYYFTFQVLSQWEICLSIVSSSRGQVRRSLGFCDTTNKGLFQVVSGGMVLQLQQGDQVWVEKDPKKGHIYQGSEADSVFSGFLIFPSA
T1 sequence (P02746 28-253 limits assumed, chain 2 of 3): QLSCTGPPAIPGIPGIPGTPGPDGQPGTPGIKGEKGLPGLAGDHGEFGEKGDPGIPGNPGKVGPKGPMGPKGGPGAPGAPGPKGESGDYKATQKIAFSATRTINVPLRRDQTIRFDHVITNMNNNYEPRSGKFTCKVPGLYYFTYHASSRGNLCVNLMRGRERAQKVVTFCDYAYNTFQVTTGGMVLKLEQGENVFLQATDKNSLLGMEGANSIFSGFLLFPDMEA
T1 sequence (P02747 29-245 limits assumed, chain 3 of 3): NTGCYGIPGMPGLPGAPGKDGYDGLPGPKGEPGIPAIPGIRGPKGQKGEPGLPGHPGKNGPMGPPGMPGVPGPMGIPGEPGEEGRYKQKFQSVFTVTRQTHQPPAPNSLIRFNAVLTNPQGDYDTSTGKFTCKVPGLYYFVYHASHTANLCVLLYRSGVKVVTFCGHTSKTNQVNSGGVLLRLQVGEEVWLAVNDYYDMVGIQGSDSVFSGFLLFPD
T4 sequence (P12314 16-292): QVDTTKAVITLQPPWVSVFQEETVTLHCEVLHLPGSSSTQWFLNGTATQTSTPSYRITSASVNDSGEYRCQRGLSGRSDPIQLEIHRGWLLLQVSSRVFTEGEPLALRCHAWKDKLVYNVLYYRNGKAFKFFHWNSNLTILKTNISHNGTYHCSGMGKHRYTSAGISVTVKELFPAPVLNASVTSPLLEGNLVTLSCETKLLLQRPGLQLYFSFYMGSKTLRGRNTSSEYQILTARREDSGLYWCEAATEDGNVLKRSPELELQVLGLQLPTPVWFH
T5 sequence (P55899 24-297 limits assumed, chain 1 of 2): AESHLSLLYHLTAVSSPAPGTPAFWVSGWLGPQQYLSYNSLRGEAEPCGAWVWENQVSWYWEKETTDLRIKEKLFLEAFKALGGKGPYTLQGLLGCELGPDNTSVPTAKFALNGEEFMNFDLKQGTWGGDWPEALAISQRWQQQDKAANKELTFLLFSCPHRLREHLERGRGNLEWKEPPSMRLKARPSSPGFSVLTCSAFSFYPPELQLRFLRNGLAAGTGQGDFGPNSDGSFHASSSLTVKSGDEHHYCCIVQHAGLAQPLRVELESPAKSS
T5 sequence (P61769 21-119 limits assumed, chain 2 of 2): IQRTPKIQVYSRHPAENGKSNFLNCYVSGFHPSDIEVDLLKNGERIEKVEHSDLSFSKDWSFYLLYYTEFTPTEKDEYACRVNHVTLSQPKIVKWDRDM
T9 sequence (O75015 17-200 limits assumed): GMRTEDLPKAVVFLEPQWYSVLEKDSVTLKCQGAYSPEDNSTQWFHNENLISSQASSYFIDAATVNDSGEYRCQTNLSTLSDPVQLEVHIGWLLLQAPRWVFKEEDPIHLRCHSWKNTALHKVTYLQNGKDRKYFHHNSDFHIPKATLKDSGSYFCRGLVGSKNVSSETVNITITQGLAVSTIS

B1: NNV003 (antibody, human IgG1, kappa)
heavy: not shown
light: DIVMTQSHKLLSTSVGDRVSITCKASQDVSTAVDWYQQKPGQSPKLLINWASTRHTGVPDRFTGSGSGTDYTLTISSMQAEDLALYYCRQHYSTPFTFGSGTKLEIKRTVAAPSVFIFPPSDEQLKSGTASVVCLLNNFYPREAKVQWKVDNALQSGNSQESVTEQDSKDSTYSLSSTLTLSKADYEKHKVYACEVTHQGLSSPVTKSFNRGEC
notes: Mouse/human IgG1 kappa chimera of lilotomab; also called chHH1; chimeric HH1
Broadly, the EC50 (read off the curve) is the concentration needed to bring the measured effect to its halfway point. A low value points to greater potency. Take B1: the “EC50 (read off the curve)” value in test [1] is ~1 µg/mL; in test [2] it was ~0.8 µg/mL; in test [3], ~0.7 µg/mL; in test [4], ~3 µg/mL; in [5] it was ~0.4 µg/mL; in test [6] it was ~0.04 µg/mL. Also, the concentration for a half-maximal effect (EC50 (read off the curve)) in [7] is ~0.5 µg/mL; in test [8] it was ~0.3 µg/mL.

B2: AH02895 (antibody, human IgG1, kappa, V domains shown)
VH: QIQLVQSGAEVVKPGASVKVSCKASGYSFTDYNMYWVKQAPGQRLEWMGYIDPYNGDTTYNQKFKGRATITRDTSASTAYIELSSLRSEDTAVYYCARSPYGHYAMDYWGQGTLVTVSS
VL: DIQMTQSPSSLSASVGDRVTITCKASQDVSTAVDWYQQKPGKAPKLLINWASTRHTGVPSRFSGSGSGTDYTLTISSMQPEDFATYYCRQHYSTPFTFGQGTKLEIKR
notes: Humanized IgG1 kappa; also called NNV020 #6
By EC50 is commonly meant the concentration needed to bring the measured effect to its halfway point. Low readings indicate higher potency in that assay, high ones lower potency in that assay. The Ki is the dissociation constant of the complex between target and ligand, obtained from inhibition or displacement. Low readings indicate higher affinity, high ones lower affinity. For the molecule B2, in the test with human CD37 [9], a half-maximal effect (EC50) was put at 0.718 nM and the inhibition constant Ki stood at 0.33 nM. In addition, in the test with human CD37 [10], the “fold affinity relative to NNV009” value was in the range of 4 to 7 fold. For the same molecule, the “Ki(NNV009)/Ki(NNV020 var.)” value in the test with human CD37 [11] is 6.97 fold.

B3: NNV024 (antibody, human IgG1)
heavy: not shown
light: DIQMTQSPSSLSASVGDRVTITCKASQDVSTAVDWYQQKPGKSPKLLINWASTRHTGVPSRFSGSGSGTDYTLTISSLQPEDFATYYCRQHYSTPFTFGQGTKLEIKRTDAAPSVFIFPPSDEQLKSGTASVVCLLNNFYPREAKVQWKVDNALQSGNSQESVTEQDSKDSTYSLSSTLTLSKADYEKHKVYACEVTHQGLSSPVTKSFNRGEC
modifications: afucosylated N-glycan (GlymaxX technology)
notes: Humanized IgG1 kappa, same chains as NNV023, afucosylated; also called afucosylated NNV023; AH02871HC_2877LC-110D GlymaxX
For B3, the concentration giving a half-maximal response (EC50 (read off the curve)) in test [1] is ~2 µg/mL; in test [2] it was ~0.8 µg/mL; in test [3] it was ~0.7 µg/mL; in test [4] it was ~3 µg/mL; in test [14], ~0.4 µg/mL; in [5] it was ~0.4 µg/mL. In addition, the “EC50 (read off the curve)” value was ~0.04 µg/mL in test [6], ~0.2 µg/mL in test [7], ~0.6 µg/mL in test [15] and ~0.3 µg/mL in test [8]. In addition, the “ADCC signaling at 1 µg/mL relative to obinutuzumab, patient-derived CLL cells” value in test [12] was ~3 fold. The “average Emax relative to rituximab, ADCC FcγRIIIa-158V reporter assay, ten B-NHL cell lines” value in test [12] was 1.36 fold. Besides, the “average potency (EC50) relative to rituximab, ADCC FcγRIIIa-158V reporter assay” value in test [12] was found to be 35.5 fold. In addition, in test [12], the “average potency of the ADCC response (Example 13)” value amounted to 0.6 nM. Further, the binding result with human CD37 [13] is “binds”.

B4: NNV023 (antibody, human IgG1)
heavy: not shown
light: B3 light
notes: Humanized IgG1 kappa, fucosylated; also called AH02871HC + AH02877LC + V110D; AH02871HC_2877LC-110D
In the case of B4, in test [12], the “average potency of the ADCC response (Example 13)” value was 3 nM; the “efficacy (Emax) relative to NNV024, ADCC FcγRIIIa-158V reporter assay” value stood at 75%; the “potency (EC50) relative to rituximab, ADCC FcγRIIIa-158V reporter assay” value is ~7 fold. In the test with human CD37 [9], this molecule displayed an EC50 of 1.24 nM and an inhibition constant Ki of 0.571 nM. The “fold affinity relative to NNV009” value with human CD37 [16] was in the range of 4 to 7 fold. Moreover, the “Ki(NNV009)/Ki(NNV020 var.)” value with human CD37 [11] is 4.03 fold.

The values above are taken from patent US20250333531A1 (NORDIC NANOVECTOR ASA, published 2025).
